First the molecules themselves.
B1: IER2 S14: IER2, S14 to alanine (protein, UniProt Q9BTL4 1-223, looked up, variant S14A)
Immediate early response gene …: MEVQKEAQRIMTLAVWKMYHSRMQRGGLRLHRSLQLSLVMRSARELYLSAKVEALEPEVSLPAALPSDPRLHPPREAESTAETATPDGEHPFPEPMDTQEAPTAEETSACCAPRPAKVSRKRRSSSLSDGGDAGLVPSKKARLEEKEEEEGASSEVADRLQPPPAQAEGAFPNLARVLQRRFSGLLNCSPAAPPTAPPACEAKPACRPADSMLNVLVRAVVAF
B2: IER2 L30: IER2, L30 to alanine (protein)
chain: B1 Immediate early response gene … with A14S, L30A
B3: IER2 Q35: IER2, Q35 to alanine (protein, UniProt Q9BTL4 1-223, looked up, variant Q35A)
Immediate early response gene …: B1 Immediate early response gene … with A14S, Q35A
B4: IER2 W16: IER2, W16 to alanine (protein, UniProt Q9BTL4 1-223, looked up, variant W16A)
Immediate early response gene …: B1 Immediate early response gene … with A14S, W16A
B5: IER2 V15: IER2, V15 to alanine (protein, UniProt Q9BTL4 1-223, looked up, variant V15A)
Immediate early response gene …: B1 Immediate early response gene … with A14S, V15A
B6: IER2 G26: IER2, G26 to alanine (protein, UniProt Q9BTL4 1-223, looked up, variant G26A)
Immediate early response gene …: B1 Immediate early response gene … with A14S, G26A
B7: IER2 L34: IER2, L34 to alanine (protein)
chain: B1 Immediate early response gene … with A14S, L34A
B8: IER2 L36: IER2, L36 to alanine (protein, UniProt Q9BTL4 1-223, looked up, variant L36A)
Immediate early response gene …: B1 Immediate early response gene … with A14S, L36A
B9: IER2 R29: IER2, R29 to alanine (protein, UniProt Q9BTL4 1-223, looked up, variant R29A)
Immediate early response gene …: B1 Immediate early response gene … with A14S, R29A
B10: IER2 K17: IER2, K17 to alanine (protein)
chain: B1 Immediate early response gene … with A14S, K17A
B11: IER2 S33: IER2, S33 to alanine (protein, UniProt Q9BTL4 1-223, looked up, variant S33A)
Immediate early response gene …: B1 Immediate early response gene … with A14S, S33A
B12: IER2 H31: IER2, H31 to alanine (protein, UniProt Q9BTL4 1-223, looked up, variant H31A)
Immediate early response gene …: B1 Immediate early response gene … with A14S, H31A
B13: IER2 R32: IER2, R32 to alanine (protein, UniProt Q9BTL4 1-223, looked up, variant R32A)
Immediate early response gene …: B1 Immediate early response gene … with A14S, R32A
B14: IER2 M23: IER2, M23 to alanine (protein, UniProt Q9BTL4 1-223, looked up, variant M23A)
Immediate early response gene …: B1 Immediate early response gene … with A14S, M23A
B15: IER2 R25: IER2, R25 to alanine (protein, UniProt Q9BTL4 1-223, looked up, variant R25A)
Immediate early response gene …: B1 Immediate early response gene … with A14S, R25A
B16: IER2 Q24: IER2, Q24 to alanine (protein, UniProt Q9BTL4 1-223, looked up, variant Q24A)
Immediate early response gene …: B1 Immediate early response gene … with A14S, Q24A
B17: IER2 S37: IER2, S37 to alanine (protein, UniProt Q9BTL4 1-223, looked up, variant S37A)
Immediate early response gene …: B1 Immediate early response gene … with A14S, S37A
B18: IER2 G27: IER2, G27 to alanine (protein, UniProt Q9BTL4 1-223, looked up, variant G27A)
Immediate early response gene …: B1 Immediate early response gene … with A14S, G27A
B19: IER2 Q8: IER2, Q8 to alanine (protein, UniProt Q9BTL4 1-223, looked up, variant Q8A)
Immediate early response gene …: B1 Immediate early response gene … with Q8A, A14S
B20: IER2 L28: IER2, L28 to alanine (protein, UniProt Q9BTL4 1-223, looked up, variant L28A)
Immediate early response gene …: B1 Immediate early response gene … with A14S, L28A
B21: PME1 M8: PME1, M8 to alanine (protein, UniProt Q9Y570 2-386, looked up, variant M8A)
Protein phosphatase …: SALEKSAHLGRLPSRPPLPGSGGSQSGAKMRMGPGRKRDFSPVPWSQYFESMEDVEVENETGKDTFRVYKSGSEGPVLLLLHGGGHSALSWAVFTAAIISRVQCRIVALDLRSHGETKVKNPEDLSAETMAKDVGNVVEAMYGDLPPPIMLIGHSMGGAIAVHTASSNLVPSLLGLCMIDVVEGTAMDALNSMQNFLRGRPKTFKSLENAIEWSVKSGQIRNLESARVSMVGQVKQCEGITSPEGSKSIVEGIIEEEEEDEEGSESISKRKKEDDMETKKDHPYTWRIELAKTEKYWDGWFRGLSNLFLSCPIPKLLLLAGVDRLDKDLTIGQMQGKFQMQVLPQCGHAVHEDAPDKVAEAVATFLIRHRFAEPIGGFQCVFPGC
B22: PME1 K6: PME1, K6 to alanine (protein, UniProt Q9Y570 2-386, looked up, variant K6A)
Protein phosphatase …: B21 Protein phosphatase … with K5A, A7M
B23: PME1 S7: PME1, S7 to alanine (protein, UniProt Q9Y570 2-386, looked up, variant S7A)
Protein phosphatase …: B21 Protein phosphatase … with S6A, A7M
B24: PME1 E5: PME1, E5 to alanine (protein, UniProt Q9Y570 2-386, looked up, variant E5A)
Protein phosphatase …: B21 Protein phosphatase … with E4A, A7M
B25: PME1 H9: PME1, H9 to alanine (protein, UniProt Q9Y570 2-386, looked up, variant H9A)
Protein phosphatase …: B21 Protein phosphatase … with A7M, H8A
B26: PME1 G11: PME1, G11 to alanine (protein, UniProt Q9Y570 2-386, looked up, variant G11A)
Protein phosphatase …: B21 Protein phosphatase … with A7M, G10A
B27: PME1 R12: PME1, R12 to alanine (protein, UniProt Q9Y570 2-386, looked up, variant R12A)
Protein phosphatase …: B21 Protein phosphatase … with A7M, R11A
B28: PME1 L4: PME1, L4 to alanine (protein, UniProt Q9Y570 2-386, looked up, variant L4A)
Protein phosphatase …: B21 Protein phosphatase … with L3A, A7M
B29: PME1 L10: PME1, L10 to alanine (protein, UniProt Q9Y570 2-386, looked up, variant L10A)
Protein phosphatase …: B21 Protein phosphatase … with A7M, L9A

Data on 29 molecules can be found in PMC11446282.

Substitutions are numbered along the chain they refer to.

One assay has as its system PP2A-B55α. Kind of assay: Single alanine mutational scan, YFP-tagged interactors immunoprecipitated from HeLa cells, Western blot. It counts as binding, human. The conditions noted are these: single alanine mutant of YFP-tagged IER2. The protocol:
Standard cloning techniques were used throughout. Point mutations were introduced by whole plasmid polymerase chain reaction (PCR). All constructs were fully sequenced. Synthetic DNA was purchased from GeneArt, Life Technologies and cloned into pcDNA5/FRT/TO (Invitrogen) expression vector containing YFP, resulting in the indicated YFP fusion proteins. These constructs were transiently transfected into HeLa cells 24 hours before harvesting cells. Cells were lysed in lysis buffer [50 mM tris-HCl (pH 7.5), 50 mM NaCl, 1 mM EDTA, 1 mM […], and 0.1% NP-40]. Complexes were immunoprecipitated at 4°C in lysis buffer with green fluorescent protein (GFP)–Trap (ChromoTek) and washed in lysis buffer. Precipitated protein complexes were washed three times in lysis buffer, eluted in 2× SDS sample buffer, and subjected to Western blotting or MS as indicated.
Background: Immunoblotting shows a protein as a band on a membrane.
As for B1, the Experimental % binding was 83%. Molecule B2 yielded an Experimental % binding of 81%.

For B3, the Experimental % binding came to 67%. B4 had an Experimental % binding of 100%. The same measure, in the same setting: in the case of B5 it was 91%; in that of B6, 87%. Molecule B7 displayed an Experimental % binding of 74%.

In turn, B8 had an Experimental % binding of 66%. Consider B9, for which the Experimental % binding came to 90%.

The molecule B10 displayed an Experimental % binding of 10%. Take B11: the Experimental % binding is given as 58%. Still for that read-out and setting: in the case of B12 it was 61%; in that of B13, 70%; in that of B14, 94%. In turn, B15 gave an Experimental % binding of 76%. Turning to B16, the Experimental % binding came out at 118%. Regarding B17, the Experimental % binding was 62%.

Consider B18, for which the Experimental % binding is given as 77%. On the same count and under the same terms, in the case of B19 it was 90%. As to B20, the Experimental % binding was 102%.

The same assay, now with this note: single alanine mutant of YFP-tagged PME1.
As for B21, the Experimental % binding is on record as 2%.

B22: the Experimental % binding came to 2%.

B23 returned an Experimental % binding of 220%. On the same count and under the same terms, in the case of B24 it was 108%. Same read-out and setting: in the case of B25 it was 88%; in that of B26, 108%. Molecule B27 came in with an Experimental % binding of 10%. The same measure, in the same setting: in the case of B28 it was 1%; in that of B29, 52%.
